Test results as given in PMC6398482.

Biological target: Taxol-stabilised microtubules of Rhodamine-labelled tubulin (porcine) (UniProt P02550)
Assay: confocal microscopy of purified proteins; Taxol-stabilised MT seeds incubated with GFP–PLK4 (1 µM) for 15 min at 37°C, mounted on a slide; condensates associated with MTs counted (N=3, n=100 spots/condition)

B1: GFP-tagged Xenopus PLK4 (wild type) (enzyme)
chain: MAGSIGERREDFKVLNLLGKGSFACVYRAQSINTGIDVAIKMIDKKAMQKVGMVQRVRNEVEIHCQLKHPSILELYNYFEDSNYVYLILEMCHNGEVNRYLKNRKKPFAEDEARHFMHQIVTGMLYLHSHGILHRDLTLSNLLLSSDMNIKIADFGLATQLKMPNEKHFTMCGTPNYIAPEIATRSAHGLESDVWSLGCMLYTFLVGRPPFDTDTVKNTLNKIVLADYEMPDFVSREAKDLIFQLLRKNPADRLSLSSVLDHAFMTGFSNVQSKVMGAVEDSMDSGHATISTGFTGSSGVSISGRFQEKRILSGPSLPNKVNIFQFKDKHPTERSNGGSFHNTQRENNDFSEGNGRKPVACEDRPHSRYLRRAHSSDRSGTSQSQTYAKPSSYSERCHSVEMLAKPTHLKGYRTSSPPNSYGDIPQMFTDERSLERHTSPPVKEKTPSEFMGPAKQTAPRSNDKAETVQQWFGAMQLNGQFKNTPDTSSVSNMGGDFYSQQATQNGAPQYAWNDVKRKKNTDSSIESVLLGIKKNPGTGQRKAEKSQFGEQSKSRVPQQAFGSSTLRSIISPLNAERLKPIRQKTKNAVVSILESGEVCMEFLKEQNSQERVKEVLRISCDGNLIYVYHPNEGKGFPLVDRPPSPPENRLSYTFDSLPEKYWKKYQYAAKFIKLVRSKTPKVTYYTRYAKCMLMENSPTADVEVCFYDGAKIHKTSDVIRVIEKSGRSYTLEGSRLSTLSDEVRSYLDHANESHCVCLSLESAINTEEKKGENISLFPITFGRRPALAESPKTQPTPSVDSARERKEEQSYVNRVLHGSAASPPQMPNLNPSLISYDGSVFSATTVQPSPTSNIHNTPDHAQVLKSVFVENVGWASQLNSGAVWVQFNDGSQLVVQPGVSSIIYTAPNGQITRHGENDKLPEYIKSKLQCLSSILMLFASSSSR
- percent of PLK4 condensates associated with MTs: 95.4%
